From patent publication US20110212075A1, “SCREENING METHOD FOR POLYMORPHIC MARKERS IN HTRA1 GENE IN NEURODEGENERATIVE DISORDERS” (SIEMENS AKTIENGESELLSCHAFT, priority 2007, published 2011)

How the values were obtained:
[1] = molecular target: T1, HtrA1 (Homo sapiens, UniProt Q92743); assay: HtrA1 activation by peptides (degradation of wt-tau, SDS/PAGE); assay type: biochemical; conditions: peptide 200 μM in DMSO, HtrA1 (0.04 μg) preincubated 10 minutes at 37° C., wt-tau (2 μg) 10 minutes at 37° C., Coomassie gel, FIG. 18
T1 construct: made in house; host or cells: Escherichia coli BL21 D3+
Procedure: Purified wt-tau (2 μg) was incubated with HtrA1 (0.04 μg) for 10 minutes at 37° C. HtrA1 was preincubated with different peptides for 10 minutes at 37° C. All peptides were dissolved in DMSO and added to a final concentration of 200 μM. Wt-tau was incubated with DQLAFHQFYI (lane 1), KKKDSRIWWV (lane 2) and with HtrA1 and DMSO as a control (lane 3). Samples were loaded on a SDS/PAGE. The gel was stained with Coomassie Blue.
(§1) HtrA1 interacts with presenilin 1 (PS1). This was evident from data obtained from copurification, comigration during size exclusion chromatography and two hybrid analyses. […] Such a peptide could be used as a basis to synthesise a potent HtrA1 activator that could be of therapeutic relevance. […] This peptide did however not bind to HtrA1 composed of protease and PDZ domain as shown by Isothermal Titration calorimetry. Only after adding […] residues, the peptide did bind to HtrA1.

[2] = molecular target: T2, HtrA1 composed of protease and PDZ domain (Homo sapiens, UniProt Q92743); assay: Binding of peptide to HtrA1 by Isothermal Titration calorimetry
T2 construct: HtrA1 composed of protease and PDZ domain
Source text: as §1

[3] = molecular target: PDZ domain of HtrA1 (Homo sapiens, UniProt Q92743); conditions: Runyon et al. Protein Sci. 16:2454-71 (2007); cited from earlier work
Chain of PDZ domain of HtrA1 (Q92743 365-467 limits assumed): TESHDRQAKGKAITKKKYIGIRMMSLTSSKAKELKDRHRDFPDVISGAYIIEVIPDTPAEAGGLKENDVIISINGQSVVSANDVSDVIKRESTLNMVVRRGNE

T2 sequence (Q92743 158-480 limits assumed): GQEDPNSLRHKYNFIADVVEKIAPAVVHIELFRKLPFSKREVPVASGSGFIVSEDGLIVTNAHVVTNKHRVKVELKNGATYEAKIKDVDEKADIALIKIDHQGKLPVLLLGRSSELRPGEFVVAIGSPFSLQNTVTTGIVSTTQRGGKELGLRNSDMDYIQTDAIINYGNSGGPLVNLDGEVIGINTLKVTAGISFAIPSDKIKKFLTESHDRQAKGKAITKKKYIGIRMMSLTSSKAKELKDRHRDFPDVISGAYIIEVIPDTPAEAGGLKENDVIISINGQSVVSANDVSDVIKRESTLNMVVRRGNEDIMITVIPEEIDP
T1 sequence (Q92743 158-480 limits assumed): as above

activation of HtrA1 as shown by a more efficient degradation of tau [1] | binding to HtrA1 [2] | Substance | binding to the PDZ domain of HtrA1 [3]
activate HtrA1 |  | DQLAFHQFYI [peptide comprised of the 10 C-terminal residues of PS1 (presenilin 1)] | 
 | not bind | DSRIWWV [reference compound] | excellent binding
weaker activator | did bind | KKKDSRIWWV [second peptide, DSRIWWV with 3 added N-terminal residues] | 
